The domain aggregation screens of Martell et al. (2025)

Test: soluble fraction after stress (log2 fold change); higher = more stays soluble; pooled small domains, quantitative proteomics
Conditions: stress: pH 4
Method in brief: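 Values are log2 fold changes, and higher ones mean more of the domain stayed soluble. Each fold change reflects the soluble amount of a domain after acid stress and is taken as a measure of aggregation propensity. The stress was pH 4, applied to pooled custom libraries of small protein domains analysed by high-throughput quantitative proteomics.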

Row | Sequence | soluble fraction (log2)
1 | HMIDMQIDTARFGTLGVDDDKIITFPKGLPGFEDERRFFLMDHSGSSKIKWLHSADNPGLALV | -0.541
2 | HMRDSYEVEGRIASVSPAAGTFVVAGVTVDYTGARFVGGTVAQLAPGVKVEVEGRRLANGTLQAREIEFD | -0.12
3 | HMETGGLAQEAERELALLQEQIAHHEALYRKGTPEISDGAFDELFDRYQELADSLGVPADERIDRA | -0.836
4 | HMTIKNHIDEILKKEPFILENIKNGLINISALARQIEPQLSRKVGKKLNVNAIIMTIKRMEIDQLNK | 0.0888
5 | HMQILPAFLPENPELRARLANHSLEELTEILKQYKTLHNSTDVDTVKRAIRAIEIEEYYAVHPV | -0.635
6 | HMTVSLTDVPFVPEILDRLERPELDVLLAILNGATNTFDLAAKTGRSRDELDEVLDRLTTLGLIER | -1.12
7 | HMESVTETFLTNLINRYIADKAGYIISYPSEYRIEVLYHGGQVLDYENLRKSINTYIPAHIGYKLVTI | -0.158
8 | HMSMPTITLQHYKRGSHYYASIIETFRDPVTRKNSSRTLEALGDISEKMKEDPNYLQSLKDRVKALRSD | 0.156
9 | HMDDVVVLPFTAEFARMSSDDFVREILVGKIGMKRFVVGYNHRFGSGQQGDFASLQRMQGELGFVAVRVG | -0.479
10 | HMKVIETKYNTYVVKSGDTLYSVAKKYGISVTELKEINDLSNNTLSIGQKLLVPATTIIIDE | -0.525
11 | HMDINIETLNYYVGKAKIPLSELRISVKNIDLFLSGEKQPTFNQLSSIAKKLNIPTGLLLLDESIEV | -1.34
12 | HMKNAMTDIYLEEIKKILTKNEFLVYTLRELNNFSVQFITDNYDLSEKTIYNSVYRAKKKIDRHFT | -0.696
13 | HMEGTEILVNIRKGMTKEEIASLLVSKGLVEDKNTFLVQTALYTSDRYPIQPGSYTLNTAQTPEEMLAVMT | -0.073
14 | HMAYSEEERNLIRSRLKDVAAALFKEKGIRDTNIDEIYTPVGISKTFFYSFFPSKAVLAIAIMK | -0.267
15 | HMKKHAPSLMRQIRRELKEGKSPESLLSKAKLISDSYYRSLSFYLLIPYLSPNSKQFQEAISLAGKDID | -0.216
16 | HMHEYSDIEHRILDAAREVFIRKGYDSATMGDIALLAGMSRTSVNYYFRNKERLFEAIFEEII | -1.25
17 | HMGKPAGLIRELGNHPEDEKPVTLNNGRFGPYVKHGKVMASLTKADSPDDITFDRAIELIAIKAEKMAAKG | -0.00901
18 | HMSVTYRYSYVYNGNTYSDGWSVRRAIENNENKRFGPEPSDLDHEAQKQARVTFWAEHGVEYKEQEVV | -0.423
19 | HMKMLPAEVLTHPAVVALIERGAPTGSITPEEVRQASEDAAVEPRHLKALLAHLSALGISVQIP | -0.266
20 | HMGGYLIGDVAQMVGLSRDALRFYEKKGIIRADKKENGYRYYSEDDIYRLMYILYHRKMNTSLEEIGGLMS | -0.478
21 | HMAEWLLVQLTNGNWFYGEVIEKTDATIVLNTDILGKVSIQKLDIRRSISGPLTAAKRQEIEDSERAKD | -0.341
22 | HMLTGNTAKLFAHLVEVMNPKEFVKINRQTVIVEAGIPRGSVGAAIAKLLETGHLIANASGAYKLT | 0.0211
23 | HMSKPIYSELLREIRSGDVKELTLIPQRREVLVEYSDGRKATVSILANDQQVLRTAESAGVPLTVK | 0.116
24 | HMEISPGDVFKQLPGIGDDLSRRVVESLGIQSLEELESAAHDGRLEQVEGFGERRVQMVRAVLTGMLS | -1.04
25 | HMKRREENLRRLALSTAERVKRKGKKEILNPMSPQERRIIHLTLQNNKEVVTHSEGEDPYRRVIISPRN | 0.311
26 | HMKGILVPASSIISDGDKNYVWTVEKGKAKKVEVTLGNADAENQEISSGLTKDSKVITNPTDSLKDGQEV | 0.269
27 | HMGTTAWISTKTANGSVNIRTGPGTGYGVIGWALNGDKLEVLSRGTSWHYVKLVKNGKIGYVSASYVSFTQ | -0.399
28 | HMGIRAFDPEAFDERLKEFFSMIAPYKKLDTRSLQPHFPHHAKEVAERIRQLAEAGKIKVDGFYISEL | -0.0943

Row | Sequence | soluble fraction (log2)
29 | HMQKAQEYILVDIKGEVQTPGVYKLPVNSRVIDAIEASGGLTKKAVTTYINLSKTLKDENVIIINKKSEL | -0.0717
30 | HMEKSLKELAQGVGQKVLTSGRPYHFDPMSAMERRVVHMTLMEMDGLRTESEGEGRFRHVVVFPA | -0.208
31 | HMEQSGDELKTWVDQAIAAYPEKVKEYQQGKKGLLALFIGEVMKRSKGTADPKKVNQLVTEALS | -0.211
32 | HMESGNLIFTNAPIADVVNAIETRYGKKLQASNQTSDLQFTGIFKNTDEFSTVVKTIEIALGLQFEV | -1.37
33 | HMPQKSDLTMEEYNKLGLAGGSGSRKLREQVGIRLSVGYGNSKQFYNRLHTFGISLDELKTAVEEVKNG | 0.295
34 | HMTLREQISALIKQGKLTQAKLARETGVNGGALSAWINGKYTGNVETVEEPIKHWMALNERK | ≥ 0.43
35 | HMELEAFPNPTDMFLSFTTKEKTPLAIYDINGKQVLYVEQITSSSKINVSKLSEGVYFAKTNQGTVKWVK | -0.46
36 | HMRIDSFEDARRRFEYDYLTRLLKLTQGSVTQAAKLAKRNRTEFYKLLQRHGIEAAHFKPTS | ≥ 0.43
37 | HMSNFGALLRMRRLEAGLSYRGLAEQSGLARATLVNLEQGLTKPSPLTMRRLASVKALRLTEL | 0.00389
38 | HMTSLTSDEEQIINVLRAEESVYINALATKSKIPLQKLLGLLIQLEFKGLIHSLPGSHYKIV | -0.473
39 | HMNVPLYIMIESAVEQRLLDGTYQVGKMIPTEFELMDEFSVSRETVRKAINLLVQRGKLEKKRGIGTFVAS | -0.26
40 | HMVLVKFEWTPPDARILVDDHPVEARDKEMELPEGTHHVQALAPRGSGYESTVTDIEVRQGMDPVRIAL | 0.115
41 | HMLLQTRQRHEALAALGYFKGDVAAAWGPASEEALRAAQAAFGITVDGKWGPQTEDAIQGALQV | -0.701
42 | HMLKEKETRALANFTNKFFGLDISEDLKPIALSELSKFKKTHKISNLEEFINSFQYDFQNEKILSLLDIFL | -0.879
43 | HMSILEIFGRNVQKYRKEQRLSQEKLAEYAGLHRTYIGMIERAEKNITLVNIEKIAKALNINLTKLLE | 0.0741
44 | HMSSYMQMQLERLESLLQKNDLTDSDKYDIRQLVEDLDKVPESVSPNLVGAYMTIKNRYASVLKTVL | -0.835
45 | HMYYSERILTILEERGISPYRVSKETGISQSVFSNWKRKPTSRITAANLERLADYLGLPVEVLTG | 0.134
46 | HMGRHSPLSIEQKEQLKTEIVALQQQRGGGRVTAVNIAELIQQKFNVVYNPNSLYKLLKQIGMSWV | -0.311
47 | HMNLGLTGDPSVLYSILLQRGDSSRADLQRQTGWSLSKTTLVLNQLLAQKLIVQVGAGRSTQYRVIN | -0.196
48 | HMINPASEKQLSFANSLIAKKEGGTETLNHYLHNRKVSSLEELDRKDVSEIINALKFAKEVT | 0.0908
49 | HMEPKIKQIVPNVVNYPVEDAKNVLVNSGLIVQIRGQGNIVYDQVPKGGAEVTRGTTVILDLNPPPGA | -0.768
50 | HMKIQISGSQRIDENVVVKVAGLSFPQSLLSLEPGQIESKLMQELPVQEVSVQRRLLPPGLDIQLVE | -0.246
51 | HMYDNTVTKYVNSLSVYVRKGPSTSDEIVTSLIKDTDVTVVGENGEWYKIKYKEFEGYIYKNLLSDNKT | -0.125
52 | HMNSNLSLTSYEEKIFFLLEKEKNLDELILESSFKAGEILSILMDLEIKHAIVSIPGGKYRRK | -1.32
53 | HMNRITEFVVPEGTKKIRADKLLAESFPDHSRSDFHRAFDASLVRLEGQPISKNRKISQGDVLVFEMPEI | -0.468
54 | HMKNETFAITSEDAGKRLDVWLTNILGDYSRSYVERLVEQGNVTVGGKTVKAGYKLKAGDSVQVSIPGPK | 0.0982
55 | HMDINEIILKVASEKKTFKTSDVLEALDNNYTKQHVSALISAMVKKGILVKAGSTAKSTYALPENASLL | 0.0858
